Test [1] deals with hIGF-1R-ECD-avi-his (human IGF-1R extracellular region) (human) (UniProt P08069). Description: SPR (Biacore T200), antigen captured by anti-His antibody on CM5 chip, antibody as analyte. On the technique in general: In SPR one partner is held on a chip, and binding of the other changes the refractive index at the surface.
The target of test [2] is human IGF-1R on human non-small cell lung cancer cells (A549) (human) (UniProt P08069). Kind of test: cell-based or functional assay.

As usually defined, the Kd is a measure of binding affinity in units of concentration. A low value points to tighter binding. A word on the koff: it is the rate constant with which the complex falls apart. Higher therefore signals fast dissociation. As usually defined, the kon is the second-order rate constant of association. Read a low kon as slow association.

Sequence of hIGF-1R-ECD-avi-his (human IGF-1R extracellular region) (human) (P08069 other isoform, or with tags, fused parts or gaps limits assumed): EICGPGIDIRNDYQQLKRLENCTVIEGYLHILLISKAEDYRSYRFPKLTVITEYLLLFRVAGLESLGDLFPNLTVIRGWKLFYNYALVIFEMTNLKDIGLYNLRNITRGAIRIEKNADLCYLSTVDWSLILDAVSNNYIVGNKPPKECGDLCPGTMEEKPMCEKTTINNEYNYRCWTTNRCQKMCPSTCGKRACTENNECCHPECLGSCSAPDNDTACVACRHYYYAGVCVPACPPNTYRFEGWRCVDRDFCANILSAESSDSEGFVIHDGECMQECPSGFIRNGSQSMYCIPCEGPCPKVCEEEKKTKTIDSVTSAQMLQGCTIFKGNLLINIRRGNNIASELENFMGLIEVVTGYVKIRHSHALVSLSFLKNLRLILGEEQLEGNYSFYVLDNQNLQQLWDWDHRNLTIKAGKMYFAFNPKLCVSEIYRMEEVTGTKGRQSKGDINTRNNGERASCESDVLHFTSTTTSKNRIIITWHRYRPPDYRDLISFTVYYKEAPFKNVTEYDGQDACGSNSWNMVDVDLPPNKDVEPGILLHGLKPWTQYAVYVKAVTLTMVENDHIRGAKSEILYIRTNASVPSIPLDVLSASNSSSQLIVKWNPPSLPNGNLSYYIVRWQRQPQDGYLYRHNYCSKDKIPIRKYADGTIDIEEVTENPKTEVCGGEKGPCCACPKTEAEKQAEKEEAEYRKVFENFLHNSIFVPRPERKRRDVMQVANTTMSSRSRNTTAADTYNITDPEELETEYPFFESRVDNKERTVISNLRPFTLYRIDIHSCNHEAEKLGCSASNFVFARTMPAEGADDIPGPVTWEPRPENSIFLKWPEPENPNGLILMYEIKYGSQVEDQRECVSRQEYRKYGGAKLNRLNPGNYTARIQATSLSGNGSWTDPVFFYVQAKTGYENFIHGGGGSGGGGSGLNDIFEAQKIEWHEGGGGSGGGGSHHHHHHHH
Sequence of human IGF-1R on human non-small cell lung cancer cells (A549) (human) (P08069 31-1367): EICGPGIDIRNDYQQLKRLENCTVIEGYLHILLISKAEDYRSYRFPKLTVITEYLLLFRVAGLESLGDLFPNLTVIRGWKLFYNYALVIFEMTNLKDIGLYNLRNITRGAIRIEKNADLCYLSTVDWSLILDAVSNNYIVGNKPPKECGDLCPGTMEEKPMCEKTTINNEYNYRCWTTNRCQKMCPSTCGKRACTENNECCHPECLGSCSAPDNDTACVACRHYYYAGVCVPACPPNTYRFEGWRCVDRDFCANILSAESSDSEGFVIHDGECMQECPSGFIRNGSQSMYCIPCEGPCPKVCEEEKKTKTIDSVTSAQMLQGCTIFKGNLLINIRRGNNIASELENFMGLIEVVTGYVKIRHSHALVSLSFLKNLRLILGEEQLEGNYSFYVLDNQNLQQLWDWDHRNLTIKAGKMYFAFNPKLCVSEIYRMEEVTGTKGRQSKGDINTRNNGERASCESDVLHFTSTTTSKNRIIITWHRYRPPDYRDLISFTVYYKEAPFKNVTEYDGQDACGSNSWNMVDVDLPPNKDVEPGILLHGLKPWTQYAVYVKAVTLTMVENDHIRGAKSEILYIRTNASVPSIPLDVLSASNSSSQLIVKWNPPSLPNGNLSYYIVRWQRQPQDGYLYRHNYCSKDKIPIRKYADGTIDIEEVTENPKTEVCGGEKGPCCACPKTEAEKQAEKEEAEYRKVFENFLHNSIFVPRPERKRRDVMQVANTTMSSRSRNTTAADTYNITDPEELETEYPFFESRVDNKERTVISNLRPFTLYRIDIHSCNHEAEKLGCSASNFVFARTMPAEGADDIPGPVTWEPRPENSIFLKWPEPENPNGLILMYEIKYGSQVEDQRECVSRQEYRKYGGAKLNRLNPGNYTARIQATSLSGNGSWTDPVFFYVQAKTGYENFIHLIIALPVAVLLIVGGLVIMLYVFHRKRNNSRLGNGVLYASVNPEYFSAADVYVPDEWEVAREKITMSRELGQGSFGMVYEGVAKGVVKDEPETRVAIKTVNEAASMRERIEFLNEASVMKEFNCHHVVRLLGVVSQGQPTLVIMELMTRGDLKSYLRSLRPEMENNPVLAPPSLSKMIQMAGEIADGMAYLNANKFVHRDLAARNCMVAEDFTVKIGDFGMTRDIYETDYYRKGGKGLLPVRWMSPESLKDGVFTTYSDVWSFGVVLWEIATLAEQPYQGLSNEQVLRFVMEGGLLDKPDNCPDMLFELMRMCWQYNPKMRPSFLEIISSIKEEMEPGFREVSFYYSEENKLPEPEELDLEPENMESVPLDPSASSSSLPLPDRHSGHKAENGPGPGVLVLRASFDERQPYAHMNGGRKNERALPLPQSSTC

In test [1], “Tepezza (Horizon, US2022356257) (antibody)” showed an equilibrium dissociation constant (Kd) of 0.267 nM, a dissociation rate constant (koff) of 0.00109 s⁻¹ and a kon of 4.08e+06 M⁻¹ s⁻¹.
Regarding “VRDN-001 (Viridian, WO2023019171) (antibody)”, the IC50 (nM), inhibition of IGF1-induced pAKT signaling in A549 cells in test [2] worked out at 0.716 nM. Also, in test [1], the dissociation constant Kd came out at 0.0175 nM, the koff was 1.47e-05 s⁻¹ and the on-rate (kon) came out at 839000 M⁻¹ s⁻¹.

The record behind these values is patent EP4775595A1.
